Measured values from the DeepSol protein solubility set.

assay: soluble on expression in E. coli; label from the status in PepcDB or PDB records

| Sequence | soluble on expression in E. coli |
| --- | --- |
| MKIQCDVCEKAPATLICCADEAALCAKCDVEVHAANKLASKHQRLFLDSLSTKFPPCDICLEKAAFIFCVEDRALLCRDCDEATHAPNTRSANHQRFLATGIRVALSSTSCNQEVEKNHFDPSNQQSLSKPPTQQPAAPSPLWATDEFFSYSDLDCSNKKEQLDLGELDWLAEMGLFGDQPDQEALPVAEVPELSFSHLAHAHSYNRPMKSNVPNKKQRLEYRYDDEEEHFLVPDLG | not soluble |
| MKKALLYRRGGLGDTLLTFPILEILKRRGYETIAVGNTDYFSIAKEVGYADGVYSFIPEEEFDLKVIISFEGNVKPFPEKREWIVKHYLNSLGLGEEFSTKLPIKPVQDSPLKGKVVIHPSSGSKKKNPPLEVFLKLKDFLEERGKEVVFLLGEAEEHLREVLSPHFLSLSPLEIAKHLKTAGFYVGLDSGISHLASYLGVPSFIVYGPTDPLVWRPIGDKVFQISLNLDCSPCFPNVCEERMCLDTEEVLRKTKETLLRYWNSL | not soluble |
| MKKALSLLTVSALSIGMLSACGPKDSGKKEESKAKKDYDLLVWEDDKKGVGLEPAVKSFEEKYKVKVKVVEMQMTDQVKKLRLDGPAGTGPDVVTLPHDQIGNAVTEGLLSEVKADDAVKSKFTDSSIEAQTYNGKLYGLPKAIETPVFIYNKKLMPKAPETMDELFNFSKEFTKDGKYGFLALGDNFYFANAFMAGMGGYVFGEKDGKPNASDVGLNNSGAVQGAEYLQKWYKEKLFPKGIIGESGGPAADGLFNEGKAASIMNGPWAFQAMEKNGIDYGVAPMPKLPNGQPLKTFVGVKGWHVTSFSKQNDLATKFTEWVTNEENAKIRFEKTKEIPPVKAVMEDPIIKDNEAAKAVATQSENGIPMPNIPEMQEVWKPAGDALQLVVTDKEAPKAALDSAVKQIKGNIEANHSKQK | not soluble |
| MKKDVTQKQTIIKFENGHLYTASDSCITEMPLTIKVNEFKFATIICSRNYLEELTLGFLASEGIFLKRNDLQSIHIDESKGFAHVKLTQSVGHHFEHPTKRVLASCCGKSRAFYFQNDAAIAKTSMTTILEHHHHHH | not soluble |
| MKKERVDVLAFNQGLFETREKAKRSVMAGLVYNDKNERLDKPGEKISVETPLHTKGQVMPYVSRGGLKLEKALNVFAINVQGKTMLDIGSSTGGFTDVALQNGARLSYALDVGYNQLAWKIRQDERVVVMERTNFRYSKPEDFTEGVPDIATIDVSFISLRLILPPLHDILKKGGSVVALIKPQFEAGKEFVGKKGIVRDPETHQMVVEEITRFAMNNGYDVKNLDFSPITGGEGNIEFLAHLVSVEGEGSYQAPESIEEVVAHAHQKLAE | not soluble |
| MKKFDVAIVGGGLAGLTASIYLAKVGRKVIVLEKSSQFGGRGMTTNKNGICMNLGAHALYRGGAAFITFNELGMTLPGGIPSTKAHGIWKGDIFTIPTDFRSILSTPLLSWSAKVQFSRLMIRLGNLDVGEVPKMSLTTWAENEIKDPMVRNIFYALCRTTTYTFAPTIQLASSVLKQIQLSIKEGVLYVDGGWETIITKLRAIANDIGVQFLAKKHVVEIEHSEGKQRIHCVDDEVFEVGTVIVTTPPKEACKIIKGAEGTSLHKWSEQSVPVTVGALDIGLRQLPNPTHQFVLGLDQPIFFTNQSRAAKLSEDGSIAVSLIKYHNPVLEMNHIHEDKEQLESTMELLHSNWKREVVAQQYLPKITVVHDFPHIDRVEKPGPNIPEMPGVYVAGDWAGHDEILADAAVASGKRAALHILKQYESEAVHHGNGAVILEHHHHHH | soluble |
| MKKIAVFADVQNLYYTVRQAYGCHFNYAALWADISKRGEIVHAFAYAIDRGDSKQQQFQQILRNLGFTVRLKPYIQRSDGSAKGEWDVGITIDIMDFAPQVDEVVLASGDGDFDMLLDRVISKHGVEAVAYGVPGLTANSLIRAASRYVPIEGALLLK | not soluble |
| MKKIIFTFLILGNVYNFAAQKTLRTVEKCRVTSKGTTKDGKRFANCISLQSGKTFNFTGLVDQTYYKFSKGTIFKVYFYGNGNRNLTLETFDYIR | not soluble |
| MKKIPLGTTDITLSRMGLGTWAIGGGPAWNGDLDRQICIDTILEAHRCGINLIDTAPGYNFGNSEVIVGQALKKLPREQVVVETKCGIVWERKGSLFNKVGDRQLYKNLSPESIREEVAASLQRLGIDYIDIYMTHWQSVPPFFTPIAETVAVLNELKSEGKIRAIGAANVDADHIREYLQYGELDIIQAKYSILDRAMENELLPLCRDNGIVVQVYSPLEQGLLTGTITRDYVPGGARANKVWFQRENMLKVIDMLEQWQPLCARYQCTIPTLALAWILKQSDLISILSGATAPEQVRENVAALNINLSDADATLMREMAEALER | soluble |
| MKKPNGTNGASSSLEPPPSTFQPLCHPLVEEVSKEVDGYFLQHWNFPNEKARKKFVAAGFSRVTCLYFPKALDDRIHFACRLLTVLFLIDDLLEYMSFEEGSAYNEKLIPISRGDVLPDRSIPVEYIIYDLWESMRAHDREMADEILEPVFLFMRAQTDRTRARPMGLGGYLEYRERDVGKELLAALMRFSMGLKLSPSELQRVREIDANCSKHLSVVNDIYSYEKELYTSKTAHSEGGILCTSVQILAQEADVTAEAAKRVLFVMCREWELRHQLLVARLSAEGLETPGLAAYVEGLEYQMSGNELWSQTTLRYSVVVD | soluble |
| MKKRRFPRVNAVLSRWGVALSDARETQAEQARLADFEARGGLEAPAYALSPGMRTFDLAPLVEEYAQHGEALAALHDPARNQTGYRSGNGYYDTPDAEALYLMIRRYQPRRVIEVGCGNSTRITRQAALDGGLETEITAIDPWPRADIAGVVDRFEQARLEEVDPAVFAALEADDVLFIDSSHQVRMSNDVAHLFCRIIPALAPGVVIHVHDVFLPYEYPKRFFYDCPSWAEQYVLHALIQSGGYDILWPGYYLQRARPDAVEALPFLGQGRAQSFWIRKL | not soluble |
| MKKTDTLPATLSALIQEYSIAEGIQMAEQQVRENPAKALCRHSLFQLLCVAGDWSRALHQLQLCARMEANYTQEARLYRELVRCEMFRHTVFQGEQRPGFLLPQPVWVESLLAALACHDDTGEVDKHRNTALEAITDTGGQWNGGAFDWASDSDSRLGPVLELVTGGVYIWLPFSQIRSLESPQPTRLTDLLWKPVNITLVNGDTHGAWLFTRYSGSESASDALRLCRETAWQDGPGETTVRALGQKVWLTSHGDISLLDMAHCTFHAQENDGA | not soluble |
| MKKTQLGRSFSKSFKQKKARASNASSDPFRFQNNGISYKGKLIGEQDVDKARGDAMCAEAMRTAKSIIKAAGAHKTRITLQINIDGIKVLDEKSGAVLHNFPVSRISFIARDSSDARAFGLVYGEPGGKYKFYGIKTAQAADQAVLAIRDMFQVVFEMKKKQIEQVKQQQIQDGGAEISSKKEGGVAVADLLDLESELQQIERGVQQLSTVPTNCDAFGASPFGDPFVDSFNSTATSNGTANMSGTQVPFGGLQLPQVQQMQMPMVQIPQQSHQNWPTSGAGSFDAWGQQQQQQQMHHAHSTPAFGTNGFSDTNPFASAFNTQARPPPLPTVAPTQYRDPFSVHSSAIPNSNIDWTGTGTTKENMAPSTNIQQQQSSLHHASTFANFGDNKAETWSEKKVTSLEEAFTKLVDMDALVGGQGIKETKKNPFEHILNPPKASLNSMSTTCSAAQMAATQQHTTSSHADPFGDDFFR | not soluble |
| MKKVFDVWDVETAKRFLEVIRNETIYYPVLIALHTGMRAGEIVSLKWYDVNFEARIISVVKSVRNNRGLKTSDVKTKTSKRSVYINDVLFSELKNLYETIKPKPDDFVCPRLPTGNLTVGYLSKRFKLLVKRYNFPVIRFHDLRHTFATLMLSLGVNTKIVAEILGHSDIKLTADTYSHVLPTMQESAMKEFSKLWKLEHHHHHH | not soluble |
| MKKVKSIGLIETLGMVGVVEAADAALKAANVTLLGYEFNGAGYMVIKLTGDVAAVKAAVSSGAATAQKLGNLVAAHVIPRPDDQVIDTEICGKDNVPPFNGSDSEPEDGKPSGSSSEKESKESTETAVKASEPKPATATADKEEAPLEKAAPEAKDAKDTKEAPAKQASKPEAKTKSSKPTASEAKNASSPKTPEKQADSGKTAPAKTDGGNKPKSRK | not soluble |
| MKKVSIIIPFKGQTEAELMLPLSSIYNQIGVDLSQLDIHLVNDGGKTIDLSKFDVLADRLEIHYHEIPNGGPGVARQYGIDNSISEYIMFIDADDVLYYVGALWPFYNASNQGHQMIRASYWEQIAGNPYTYTVHGNGDRKAAYGKWYKRSYIEMLGLRFMPDLPIYEDTYFVGLACELATDTCFLEEKVYMWLANPNSITRTVENKFNYQAHIYARENRYWFEMIRKWKPECLEHHHHHH | soluble |
| MKKVTKSIKREGSPSDEEYTLEEDPIEFELEKMERGSSNGESEEESQRDQKQADSIIDDMVEQNDQEQEAAGEQDVERENDLRKMYELSLLPPAAIAAQIQQMEKEIYELSQWEARELIRSKHLRIFGNCRRRANKLEHHHHHHH | not soluble |
| MKKYIITAFAFITLLTGSVTFTACEDIDDIKELNLDRLLSPTNLTARVRDKVNIELTWDEMDRAQSYVIEVFKEDPDFTGTAISTLESEKATYTVTGLEGETSYSIRVKSVAEGITDSKWVSATRSTDAEQILLEVAEEDLTASEVTLRWPAGQVATEIIITPNDVAAHRVTSDEIAAGAATIKNLKSETTYTATLKNGDKTRGTMVFTTLINLDGALPAYPGDNLATIIATAEANATIVLLPKDDNNSFIYTDESGTAKTLEIELTKDVTIKGLYAENRPTTNIKFVLSGCNNFKIENLNLTASDGGTIITVLDSKGGNITVTNCDVTGFGSLLVENDNTQTGTINTFTVDNCIFHDMASGKRFVDYQKKKSFIAEFTLKNSTFYNCCSGSDFIRFDRHSTKGNIINISNCTLYGIEATSKGLFYVRSNSVGNKDFTANITKCIFANMSNKVFFSQDTKTDNLTFNSNYYFEAPSLLSIPEGGAGKVVDATGVTLDPGFTDAANGNFKVSNQTIIDNEIGDPRWRK | soluble |
| MKKYLILVGSPPACGKTYVSGELAKRLNNPVYLDKDTVIPLSKMVFKAANQPYNRDSDFFKEYVRDAEYIVTFDLAFESLNYNNCVIVNAPFSKEFRDKGYMNNLKNKLKKYNAELIPVWVSCDIDVCHKRMIKRNSDRDTWKLNNWDEYVKGQNYTTPDLEGLFVVDNSSNEDFEAGLKKLLEKVLLEHHHHHH | soluble |
| MKLAARVESVSPSMTLIIDAKAKAMKAEGIDVCSFSAGEPDFNTPKHIVEAAKAALEQGKTRYGPAAGEPRLREAIAQKLQRDNGLCYGADNILVTNGGKQSIFNLMLAMIEPGDEVIIPAPFWVSYPEMVKLAEGTPVILPTTVETQFKVSPEQIRQAITPKTKLLVFNTPSNPTGMVYTPDEVRAIAQVAVEAGLWVLSDEIYEKILYDDAQHLSIGAASPEAYERSVVCSGFAKTYAMTGWRVGFLAGPVPLVKAATKIQGHSTSNVCTFAQYGAIAAYENSQDCVQEMLAAFAERRRYMLDALNAMPGLECPKPDGAFYMFPSIAKTGRSSLDFCSELLDQHQVATVPGAAFGADDCIRLSYATDLDTIKRGMERLEKFLHGIL | soluble |
| MKLALLGRQALMGVMAVALVAGMSAKSFADEGLLNKVKERGTLLVGLEGTYPPFSFQGEDGKLTGFEVDFAEALAKHLGVKASLKPTKWDGMLASLDAKRIDVVINQVTISDVRKKKYDFSTPYTVSGIQALVKKGNEGTIKTAADLQGKKVGVGLGTNYEEWLRQHVQGVDIRTYDDDPTKYQDLRVGRIDAILVDRLAALDLVKKTKGTLAVTGDAFSRQESGVALRKGNEDLLKAVDNAIAEMQKDGTLKALSEKWFGADVTQ | not soluble |
| MKLDKYTVGKRYGKALFELAVEKNQAEAIYQELLTLREVYHQVPGIGDILSDDRLEPYEKDSIMEKLVTGFSEMMQNFLRVVYEYRRMYDLLLMIDEYERRYDEHQGLILGSVTTAIPLSKEQHQAMEEKAAQLLGYEQAHLVNLIDPSIVGGVVIEANHQVIDGSIRKQLEHMQQKLLK | not soluble |
